Source: patent US20120283194, “Inhibitors of Atypical Protein Kinase C and Their Use in Treating Hedgehog Pathway-Dependent Cancers” (published 2012)

Tests used:
[1] = target: T1, aPKC (HIS:aPKC) (UniProt P41743 P41743:1-596); experiment: EMSA; aPKC alone did not bind; conditions: tags: HIS, Abcam
T1 sequence: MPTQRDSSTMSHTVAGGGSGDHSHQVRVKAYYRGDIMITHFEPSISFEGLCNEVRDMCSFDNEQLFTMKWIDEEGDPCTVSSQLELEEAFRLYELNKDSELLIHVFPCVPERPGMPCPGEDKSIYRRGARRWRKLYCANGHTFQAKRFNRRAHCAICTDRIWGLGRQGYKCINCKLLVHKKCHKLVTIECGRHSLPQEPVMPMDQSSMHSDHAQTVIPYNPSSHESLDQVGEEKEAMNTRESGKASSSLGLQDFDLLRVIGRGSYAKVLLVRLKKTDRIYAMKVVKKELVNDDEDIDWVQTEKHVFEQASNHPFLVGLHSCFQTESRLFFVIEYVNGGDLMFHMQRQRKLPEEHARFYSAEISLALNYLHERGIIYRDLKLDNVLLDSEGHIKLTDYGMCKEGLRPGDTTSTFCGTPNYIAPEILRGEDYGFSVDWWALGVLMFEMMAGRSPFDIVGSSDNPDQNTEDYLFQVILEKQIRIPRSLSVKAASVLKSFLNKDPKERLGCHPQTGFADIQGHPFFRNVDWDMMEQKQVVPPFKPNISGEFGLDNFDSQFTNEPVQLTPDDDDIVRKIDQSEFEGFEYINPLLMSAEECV
Protocol: (§1) Electrophoretic mobility shift assay performed by incubation of 50 fmol double-stranded radiolabeled Gli1 oligos (5′ […] 3′ (SEQ IF NO:5)) in binding buffer ([…] pH 7.5, mM KCl, 2.5 mM MgCl2, 1 mM DTT, 10% glycerol, 25 uM poly(dO-dC), 5 uM ZnSO₄) with IVT Gli1:V5/HIS lysate for 10 min at room temperature. 2 pmol unlabeled Gli1 oligos or Gli1 mutant oligos (5′ […] 3′ (SEQ ID NO:6)) used as competition. Endogenous aPKC inhibited in reticulocyte lysate with PSI during translation reaction and rescue performed by adding recombinant HIS:aPKC for 15 min before addition of radiolabeled Gli1 oligos. Samples were resolved on 6% acrylamide gel and exposed to a phosphor screen (Molecular Dynamics) and imaged with GE Typhoon 9410.
(§2) We asked whether phosphorylated Gli1 affects the mobility of radiolabeled Gli1 target DNA in an electrophoretic mobility assay.

[2] = target: Gli1 (Homo sapiens, UniProt P08151 P08151:1-1106); experiment: EMSA; Zn, Mg, poly(dI-dC)-type competitor, room temperature; binding reduced by PSI during translation and rescued by recombinant aPKC; over-phosphorylation disrupts; conditions: tags: V5/HIS, rabbit reticulocyte lysate (Promega)
Protocol: as §1, §2

Chain of Gli1 (P08151 whole entry, one chain of several): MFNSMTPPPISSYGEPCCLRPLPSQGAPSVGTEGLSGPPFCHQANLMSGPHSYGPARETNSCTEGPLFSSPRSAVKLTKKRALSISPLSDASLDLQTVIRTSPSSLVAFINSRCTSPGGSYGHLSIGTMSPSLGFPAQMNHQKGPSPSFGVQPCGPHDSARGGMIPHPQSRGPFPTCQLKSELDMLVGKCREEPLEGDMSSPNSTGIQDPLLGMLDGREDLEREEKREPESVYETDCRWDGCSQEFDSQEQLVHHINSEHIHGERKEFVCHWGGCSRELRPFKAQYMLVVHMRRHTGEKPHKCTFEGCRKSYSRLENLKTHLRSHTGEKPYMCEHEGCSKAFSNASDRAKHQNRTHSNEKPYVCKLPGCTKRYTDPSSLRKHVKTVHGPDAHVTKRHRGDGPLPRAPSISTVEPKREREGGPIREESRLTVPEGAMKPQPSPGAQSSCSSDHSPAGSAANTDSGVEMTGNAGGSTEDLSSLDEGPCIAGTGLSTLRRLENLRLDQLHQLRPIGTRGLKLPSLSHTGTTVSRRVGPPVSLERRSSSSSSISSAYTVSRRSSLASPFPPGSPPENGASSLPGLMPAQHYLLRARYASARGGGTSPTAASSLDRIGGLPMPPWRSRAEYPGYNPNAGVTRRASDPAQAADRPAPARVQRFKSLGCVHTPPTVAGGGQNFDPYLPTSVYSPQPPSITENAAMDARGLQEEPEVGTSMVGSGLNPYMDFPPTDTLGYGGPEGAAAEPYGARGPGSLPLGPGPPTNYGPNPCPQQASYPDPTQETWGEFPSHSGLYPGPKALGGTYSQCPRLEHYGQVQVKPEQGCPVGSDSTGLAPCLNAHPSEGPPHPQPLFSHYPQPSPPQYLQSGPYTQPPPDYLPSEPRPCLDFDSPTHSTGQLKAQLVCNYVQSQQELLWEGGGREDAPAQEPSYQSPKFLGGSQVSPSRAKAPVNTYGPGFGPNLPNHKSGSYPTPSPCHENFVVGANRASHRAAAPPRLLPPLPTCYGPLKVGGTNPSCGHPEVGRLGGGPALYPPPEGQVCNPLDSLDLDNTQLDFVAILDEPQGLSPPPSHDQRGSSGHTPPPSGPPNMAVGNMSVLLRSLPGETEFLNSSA

B1: Gli1 target oligo (dsDNA)
DNA 1: AGCCCGGACCACCCACGAGAA
DNA 2: TTCTCGTGGGTGGTCCGGGCT
[1]
  binding result: no binding
[2]
  binding result: binds
